Experimental data from patent publication US12508311B2, “Fusion protein, and preparation method and use thereof” (SUN YAT-SEN UNIVERSITY, priority 2021, dated 2025).

Legend:
HT29 (KRas wt) = test: CCK-8 cell proliferation experiment, HT29; conditions: 10 and 20 μg/mL, 24 hours
Description: (§1) CCK-8 was a highly sensitive and non-radioactive colorimetric method for determining the number of living cells in the cell proliferation or toxicity test.

HCT116 (KRas G13D) = test: CCK-8 cell proliferation experiment, HCT116; conditions: 10 and 20 μg/mL, 24 hours
Description: as §1

KRas protein [1] = target: T1, KRas protein (Homo sapiens, UniProt P01116); test: ELISA of binding level to the KRas protein in vitro; conditions: coated at 1 ng/μL, KRas 6.25-100 μg, compared with the control group
T1 construct: made in house
Description: 100 μL of coating solution was added into each well of 96-well ELISA plate to coat overnight at 4° C. • (3) Blocking: the ELISA plate was cleaned with a phosphate buffer solution (PBS) (PBS formula: 4 g of NaCl, 0.1 g of KCl, 1.815 g of disodium hydrogen phosphate dodecahydrate, and 0.12 g of […], dissolved in 400 mL of ultrapure water, with a constant volume of 500 mL for use) for 5 minutes each time. 300 μL of 5% (w/v) bovine serum albumin was added into each well, and blocked at 37° C. for 2 hours. • (4) Adding of the purified protein KRas: 6.25 μg, 12.5 μg, 25 μg, 50 μg and 100 μg of purified protein were respectively pre-mixed and diluted in 200 μL of PBS, and the diluted KRas protein was added into the wells in sequence, and slowly shaken at the room temperature for 5 hours. […] Main steps of the example were as follows: • (1) Coupling of ligand: the target coupling amount was calculated according to the following formula: […]

KRas protein [2] = target: T1, KRas protein; test: SPR binding capacity experiment (BiacoreT200); conditions: in vitro; for binding capacity with the KRas protein (SPR): molecule coupled on CM5 chip, KRas flowing
Description: 100 μL of coating solution was added into each well of 96-well ELISA plate to coat overnight at 4° C. • (3) Blocking: the ELISA plate was cleaned with a phosphate buffer solution (PBS) (PBS formula: 4 g of NaCl, 0.1 g of KCl, 1.815 g of disodium hydrogen phosphate dodecahydrate, and 0.12 g of […], dissolved in 400 mL of ultrapure water, with a constant volume of 500 mL for use) for 5 minutes each time. 300 μL of 5% (w/v) bovine serum albumin was added into each well, and blocked at 37° C. for 2 hours. • (4) Adding of the purified protein KRas: 6.25 μg, 12.5 μg, 25 μg, 50 μg and 100 μg of purified protein were respectively pre-mixed and diluted in 200 μL of PBS, and the diluted KRas protein was added into the wells in sequence, and slowly shaken at the room temperature for 5 hours. […] Main steps of the example were as follows: • (1) Coupling of ligand: the target coupling amount was calculated according to the following formula:
[formula] wherein Rmax was the maximum binding capacity on the chip surface, and 100 RU was usually substituted in a protein test. […] Through the preconcentration experiment, it was determined that pH 5.0 was the optimal coupling condition. […] In this experiment, aimforimmobilized level was selected, and the calculated 110RU was inputted in target level. […]

T1 sequence (P01116 whole entry): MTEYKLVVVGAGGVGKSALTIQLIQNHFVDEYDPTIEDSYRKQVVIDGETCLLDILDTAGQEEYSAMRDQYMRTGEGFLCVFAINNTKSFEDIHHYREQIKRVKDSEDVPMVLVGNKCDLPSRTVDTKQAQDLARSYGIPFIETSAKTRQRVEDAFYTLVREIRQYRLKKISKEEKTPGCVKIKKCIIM

B1: TKD: fusion protein: tumour-cell-penetrating peptide BR2, anti-KRas nanobody VHH and lysosome recognition peptide CTM; SEQ ID NO.4 (protein)
chain: RAGLQFPVGRLLRRLLRDVQLQESGGGLVQAGGSLRLSCVASGRTFSTYPTGWFRQAPGKEREFVARINLSGGITNYADSVKGRFTISRDNAKNTVYLQMNSLKPEDTAVYYCGGGSTTWAGGIPTNFDYWGQGTQVTVSSGRKFERQKILDQRFFE
inhibition of cell growth (CCK-8) (HT29 (KRas wt)): could significantly inhibit growth
inhibition of cell growth (CCK-8) (HCT116 (KRas G13D)): could significantly inhibit growth
interaction with the KRas protein (ELISA, OD450-OD630) (KRas protein [1]): had a stronger interaction with the KRas protein
level of binding between TKD and the KRas protein (SPR) (KRas protein [2]): reached the level of antigen-antibody binding (nM)
binding capacity with the KRas protein (SPR) (KRas protein [2]): had a strong binding capacity with the KRas protein in vitro

B2: TKDm: control molecule of TKD with mutated CTM fragment (CTMmt) which could not be recognized by a lysosome; SEQ ID NO.5 (protein)
chain: RAGLQFPVGRLLRRLLRDVQLQESGGGLVQAGGSLRLSCVASGRTFSTYPTGWFRQAPGKEREFVARINLSGGITNYADSVKGRFTISRDNAKNTVYLQMNSLKPEDTAVYYCGGGSTTWAGGIPTNFDYWGQGTQVTVSSGRKFERAKILDARFFE
inhibition of cell growth (CCK-8) (HT29 (KRas wt)): could not achieve the same effect
inhibition of cell growth (CCK-8) (HCT116 (KRas G13D)): could not achieve the same effect
interaction with the KRas protein (ELISA, OD450-OD630) (KRas protein [1]): had a stronger interaction with the KRas protein
binding capacity with the KRas protein (SPR) (KRas protein [2]): had a strong binding capacity with the KRas protein in vitro
